From US10202593B2, “Evolved sortases and uses thereof” (President and Fellows of Harvard College, priority 2013, dated 2019)
“And” between values parts separate entries of the source, which are not always exact repeats. Equal entries are not always repeated. Where two headings read alike, the source gives them in different places.

Key:
[1] = test system: LPETG (Abz-LPETGK(Dnp)-CONH2); assay: In vitro sortase kinetics HPLC assay, LPETG substrate; type: biochemical; settings: for KN: eight GGG concentrations; for KH,LPETG: LPETG substrate; for Rel. Activity: kcat/Km of the enzyme's preferred substrate relative to kcat/Km on this substrate
Outline: (§1)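 Abz-LXEXGK(Dnp) peptides in 300 mM Tris pH 7.5, 150 mM NaCl, 5 mM CaCl2, 5% DMSO, GGG; 22.5° C., acid-quenched, converted fraction by reverse-phase HPLC peak areas. kcat and Km from eight substrate concentrations fit to Michaelis-Menten; KH at 1 mM substrate over eight GGG levels.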

[2] = test system: LAETG (Abz-LAETGK(Dnp)-CONH2); assay: In vitro sortase kinetics HPLC assay, LAETG substrate; type: biochemical; settings: for KN: eight GGG concentrations; for Rel. Activity: kcat/Km of the enzyme's preferred substrate relative to kcat/Km on this substrate
Procedure: See below for details on sortase expression and purification, and on the synthesis of Abz-LPETGK(Dnp)-CONH2 (SEQ ID NO: 19). […] Reactions were initiated with the addition of enzyme and incubated at 22.5° C. for 3 to 20 minutes before quenching with 0.5 volumes of 1 M HCl. Five to ten nmol of peptide from the quenched reactions were injected onto an analytical reverse-phase Eclipse XDB-C18 HPLC column (4.6×150 mm, 5 μm, Agilent Technologies) and chromatographed using a gradient of 10 to 65% acetonitrile with 0.1% TFA in 0.1% aqueous TFA over 13 minutes. Retention times under these conditions for the Abz-LPETGK(Dnp)-CONH2 (SEQ ID NO: 19) substrate, the released GKDnp peptide, and the Abz-LPETGGG-COOH (SEQ ID NO: 20) product were 12.8, 10.4, and 9.1 min, respectively. To calculate the percent conversion, the ratio of the integrated areas of the Abz-LPETGGG-COOH (SEQ ID NO: 20) and Abz-LPETGK(Dnp)-CONH2 (SEQ ID NO: 19) peptide Abs220 peaks was compared to a standard curve generated by mixing the product and starting peptide in known ratios. To determine […] and Km, reaction rates were fit to the Michaelis-Menten equation using OriginPro 7.0 software. All kinetics values reported represent the average of at least three measurements. Percent conversion was also calculated by using the ratio of the integrated areas of the GK(Dnp)-CONH2 and Abz-LPETGK(Dnp)-CONH2 peptide Abs355 peaks were compared directly (Example 5). To determine kcat and Km, LPETG, reaction rates were fit to the Michaelis-Menten equation using Microsoft Excel using the Solver add-in. To determine Km,GGG and KH, reaction rates were fit to the modified Michaelis-Menten, for which KH is as defined when KH<<Km,GGG.
Assays to determine eSrtA, eSrtA(2A-9) and eSrtA(4S-9) specificity were performed by preparing 10 μM stocks of Abz-LXEXGK(Dnp) (SEQ ID NO: 75) peptides in 300 mM Tris pH 7.5, 150 mM NaCl, 5 mM CaCl2, 5% v/v DMSO, and 100 mM Gly-Gly-Gly-COOH (GGG). Reactions were performed by adding eSrtA(2A-9) to a final concentration of 450 nM, eSrtA(4S-9) to a final concentration of 115 nM or eSrtA to a final concentration of 47.5 nM and a final volume of 100 μL, then incubating at 22.5° C. for 15 minutes. Reactions were quenched by the addition of 0.2 volumes of 5 M HCl, then were injected onto an analytical reverse-phase Eclipse XDB-C18 HPLC column (4.6×150 mm, 5 μm, Agilent Technologies) and chromatographed using a gradient of 10 to 65% acetonitrile with 0.1% TFA in 0.1% aqueous TFA over 13 minutes. Retention times under these conditions for the Abz-LPETGK(Dnp)-CONH2 (SEQ ID NO: 19) substrate, the released GKDnp peptide, and the Abz-LPETGGG-COOH (SEQ ID NO: 20) product were 12.8, 10.4, and 9.1 min, respectively, while the remaining Abz-LXEXGK(Dnp)-CONH2 (SEQ ID NO: 74) substrates varied in retention time between 9 and 13 minutes. To calculate the percent conversion, the ratio of the integrated areas of the GK(Dnp)-CONH2 and Abz-LPETGK(Dnp)-CONH2 (SEQ ID NO: 19) peptide Abs355 peaks were compared directly. Subsequent determination of kcat/Km and KH were performed as described for in vitro SrtA characterization.
In each case, rate constants were determined by measuring enzyme velocity at eight different substrate concentrations by HPLC assay, then fit using nonlinear regression to the Michaelis-Menten equation, yielding kcat and Km. KH was calculated by measuring enzyme velocity at 1 mM target substrate and eight different GGG concentrations by HPLC assay, then fitting the resulting curves using nonlinear regression to the modified Michaelis-Menten equation.

[3] = test system: LPESG (Abz-LPESGK(Dnp)-CONH2); assay: In vitro sortase kinetics HPLC assay, LPESG substrate; type: biochemical; settings: for Rel. Activity: kcat/Km of the enzyme's preferred substrate relative to kcat/Km on this substrate
Outline: as §1

[4] = Differential scanning fluorimetry for thermal melting curves; type: physicochemical
Procedure: FIGS. 25A-C show thermal melting curves for eSrtA variants. Each protein was freshly expressed and purified, then diluted to 40 μM in 100 mM Tris pH 7.5, 500 mM NaCl. Differential scanning fluorimetry was performed using the Life Technologies Protein Thermal Shift™ Dye kit according to manufacturers' instructions. Thermal scanning was performed on Biorad CFX96-Real Time PCR (25° C. to 99° C., 0.2° C./2s increments). To calculate Tm, fluorescence intensity was fit to the Boltzmann equation using Microsoft Excel using the Solver add-in. Melting curves were plotted with best-fit fluorescence intensities that were normalized to maximum fluorescence intensity. Tm values are shown with their standard deviations as determined from three technical replicates.
To determine thermal stability of eSrtA, eSrtA(2A-9), eSrtA(4S-9), and variants thereof, each protein was freshly expressed and purified, then diluted to 40 μM in 100 mM Tris pH 7.5, 500 mM NaCl. Differential scanning fluorimetry was performed using the Life Technologies Protein Thermal Shift™ Dye kit according to manufacturers' instructions. […] To calculate Tm, fluorescence intensity was fit to the Boltzmann equation using Microsoft Excel using the Solver add-in. Melting curves were plotted with best-fit fluorescence intensities that were normalized to maximum fluorescence intensity.

[5] = Sub LPETG, 100 mM GGG, read-out: Km
[6] = Table 2, Sub LPETG, read-out: Km
[7] = Sub LAETG, 100 mM GGG, read-out: Km
[8] = Table 2, Sub LAETG, read-out: Km
[9] = Sub LPESG, 100 mM GGG, read-out: Km
[10] = Table 2, Sub LPESG, read-out: Km
[11] = GGG varied, substrate 2A (LAETG)

B1: eSrtA (protein)
chain: QAKPQIPKDKSKVAGYIEIPDADIKEPVYPGPATREQLNRGVSFAEENESLDDQNISIAGHTFIDRPNYQFTNLKAAKKGSMVYFKVGNETRKYKMTSIRNVKPTAVEVLDEQKGKDKQLTLITCDDYNEETGVWETRKIFVATEVK
KH ([1]; 1 mM LPETG): 32.8 ± 2.4 µM
KN ([1]; 1 mM LPETG): 32.8 ± 2.4 µM
Km ([1]; 1 mM LPETG, read-out: Km,GGG): 1617 ± 13 µM
Khydrolysis ([1]; 1 mM wt (LPETG) substrate): 22.59 µM
kcat, 1 mM LxExG (Hz) ([1]; 1 mM wt (LPETG) substrate, GGG varied): 7.245 Hz
Km ([1]; 1 mM wt (LPETG) substrate, read-out: Km, GGG): 2990 µM
KH,LPETG [1]: 32.8 ± 2.4 µM
Kcat (Hz) ([1]; Sub LPETG, 100 mM GGG): 5.4 ± 0.4 Hz
Km [1, 5]: 230 ± 20 µM
Rel. Activity ([1]; Sub LPETG): 1
Kcat (Hz) ([1]; Table 2, Sub LPETG): 5.4 ± 0.4 Hz
Km [1, 6]: 230 ± 20 µM
kL/KL/KH ([1]; substrate wt (LPETG)): 1.20E+09
kHydrolysis (Hz) ([1]; substrate wt (LPETG), 1 mM, GGG varied): 0.05546 Hz
kcat, 10 mM GGG (Hz) ([1]; substrate wt (LPETG), 10 mM GGG): 5.622 Hz
Km ([1]; substrate wt (LPETG), read-out: Km, LxExG): 208 µM
KH ([2]; 1 mM LAETG): 26.5 ± 0.6 µM
KN ([2]; 1 mM LAETG): 26.5 ± 0.6 µM
Km ([2]; 1 mM LAETG, read-out: Km,GGG): 807 ± 56 µM
Kcat (Hz) ([2]; Sub LAETG, 100 mM GGG): 1.31 ± 0.26 Hz
Km [2, 7]: 6070 ± 870 µM
Rel. Activity ([2]; Sub LAETG): 103.3
Kcat (Hz) ([2]; Table 2, Sub LAETG): 1.31 ± 0.26 Hz
Km [2, 8]: 6070 ± 870 µM
preference for LPETG over LAETG ([2]; ratio of kcat/KM): 103 fold
specificity (relative cat. Efficiency, fold) ([2]; ratio of kcat/Km between 2A (LAETG) and wt (LPETG) substrates, favoured over disfavoured): 122.6 fold
kcat, 10 mM GGG (Hz) ([2]; substrate 2A (LAETG), 10 mM GGG): 1.316 Hz
Km ([2]; substrate 2A (LAETG), read-out: Km, LxExG): 6160 µM
KH ([3]; 1 mM LPESG): 76 ± 19 µM
KN ([3]; 1 mM LPESG, eight GGG concentrations): 76 ± 19 µM
Km ([3]; 1 mM LPESG, read-out: Km,GGG): 22000 ± 900 µM
Kcat (Hz) ([3]; Sub LPESG, 100 mM GGG): 1.46 ± 0.13 Hz
Km [3, 9]: 318 ± 58 µM
Rel. Activity ([3]; Sub LPESG): 4.9
Kcat (Hz) ([3]; Table 2, Sub LPESG): 1.46 ± 0.13 Hz
Km [3, 10]: 318 ± 58 µM
kcat, 10 mM GGG (Hz) ([3]; substrate 4S (LPESG), 10 mM GGG): 1.74 Hz
Km ([3]; substrate 4S (LPESG), read-out: Km, LxExG): 672 µM

B2: eSrtA(2A-9): P94R, S102C, A104H, E105D, K138P, K152I, N160K, K162H, T164N, D165A, K173E, I182V, K190E, T196S (protein)
chain: QAKPQIPKDKSKVAGYIEIPDADIKEPVYPGPATREQLNRGVCFHDENESLDDQNISIAGHTFIDRPNYQFTNLKAAKPGSMVYFKVGNETRIYKMTSIRKVHPNAVEVLDEQEGKDKQLTLVTCDDYNEETGVWESRKIFVATEVK
KH ([1]; 1 mM LPETG): 27.1 ± 0.1 µM
KN ([1]; 1 mM LPETG): 27.1 ± 0.1 µM
Km ([1]; 1 mM LPETG, read-out: Km,GGG): 585 ± 3 µM
Avg kcat (Hz) ([1]; Example 5 variants, substrate wt (LPETG)): 0.02091 Hz
Km ([1]; Example 5 variants, substrate wt (LPETG), read-out: Avg KM): 1270 µM
KH,LPETG [1]: 18.7 ± 3.3 µM
Kcat (Hz) ([1]; Sub LPETG, 100 mM GGG): 0.0209 ± 0.004 Hz
Km [1, 5]: 1270 ± 62 µM
Rel. Activity ([1]; Sub LPETG): 510
Kcat (Hz) ([1]; Table 2, Sub LPETG): 0.0209 ± 0.0004 Hz
Km [1, 6]: 1270 ± 62 µM
activity on LPETG ([1]; round 9 clones): minimally active on LPETG
preference for LAETG over LPESG [2]: > 1000 :1
KH ([2]; 1 mM LAETG): 33 ± 4 µM
KN ([2]; 1 mM LAETG): 33 ± 4 µM
Km ([2]; 1 mM LAETG, read-out: Km,GGG): 1480 ± 190 µM
Avg kcat (Hz) ([2]; Example 5 variants, substrate 2A (LAETG)): 2.23 Hz
Km ([2]; Example 5 variants, substrate 2A (LAETG), read-out: Avg KM): 265 µM
Avg kHydro (Hz) [2, 11]: 0.03506 Hz
Avg kcat (Hz) [2, 11]: 1.587 Hz
Km ([2]; KM for GGG, substrate 2A (LAETG), read-out: Avg KM): 1480 µM
Kcat (Hz) ([2]; Sub LAETG, 100 mM GGG): 2.23 ± 0.02 Hz
Km [2, 7]: 265 ± 9 µM
Rel. Activity ([2]; Sub LAETG): 1
Kcat (Hz) ([2]; Table 2, Sub LAETG): 2.23 ± 0.02 Hz
Km [2, 8]: 265 ± 9 µM
change in specificity for LAETG versus LPETG relative to eSrtA ([2]; ratio of (kcat/KM)target to (kcat/KM)LPETG, relative to eSrtA): 51,000 fold
preference for LAETG over LPETG ([2]; ratio of kcat/KM): ~500 fold and 510 fold
Specificity (relative catalytic efficiency, fold) ([2]; ratio of kcat/KM between 2A (LAETG) and wt (LPETG)): 509.8 fold
Avg KH ([2]; substrate 2A (LAETG)): 32.79 µM
activity on LPESG [3]: negligible activity
Kcat (Hz) ([3]; Sub LPESG, 100 mM GGG): 0.0066 ± 0.0006 Hz
Km [3, 9]: 4800 ± 1200 µM
Rel. Activity ([3]; Sub LPESG): 5943
Kcat (Hz) ([3]; Table 2, Sub LPESG): 0.0066 ± 0.0006 Hz
Km [3, 10]: 4800 ± 1200 µM
ΔTm compared to eSrtA [4]: ~4.4 °C
